Biological target: the molecule itself
Assay: AUC; analytical ultracentrifugation of VibO (Supplementary Fig. 24b); conditions not shown

B1: VibO, NADPH/FAD-dependent monooxygenase (oxepinone-forming enzyme) of Boreostereum vibrans (enzyme)
chain: MAAVENFEGYVEPELFERPGTSLPNKLGVMPQLTWPNVLNGTNCEKPAVPNYKPPSKVDVIIIGAGPVGLTTAACLLRQGITVRILDRSPHPLPVGRADGLQPRSMEVFDLLGLGEEVYHVGIRVEHTTVYKDGKQHIFAESHQAPGNEAHYTGLHACTQTEVEHLLIRDLIRHDILVERPCTATSYTFDEEADASVTHPITVNITNEATGAEEVVTARFLVGSDGAHSMIRKSLPIEFPGVKTDLHWGIVDAVINSDFPHRWTFGTVLNSEYGGCLIIPRERNMVRLYVQLRAEPGKAFDHSKWGPEEILVILNKVFAPYTLSYAEPVDWYTILTINERVATSFTYKDRIFLAGDSCHVHSAKGAFGMNTGVMDAHNLAWKLAMLCRGIAKPSLLASYDVERRENALRAVATSARYLRFVGNCTFQAIDGSGEVDKEADELVVPPGEDKDVFYFKKFVGQVGRFLIGLDVDYAENALNKLSPAVSRARAGYRASNPRVALSRSHSGRLYHSFGHLGQFTLLVFASNMGGALNAKLHALDSYLAGPSSFYHAYGGADTFKIVVVVRATPSQADQRVKTFPFLSKAGHTVYDDQLPLSHFGGDAHALYGVSHEEGAIVVVRPDSWIGTSSTISDARSLESYFDGFLFKSTEGSY
stoichiometry N: 2
